Key:
Test in all cases: MSD ECL; antigen coated; protocol of Example 3
[1] = target: DR4G104: Human HLA-DRA1*01:02/DRB1*04:02 ECD with hemagglutinin peptide HA_304-318 (human)
[2] = target: DR4G119: Human HLA-DRA1*01:02/DRB1*10:01 ECD with hemagglutinin peptide HA_304-318 (human)
[3] = target: DR4G103: Human HLA-DRA1*01:02/DRB1*15:01 ECD with hemagglutinin peptide HA_304-318 (human)

In the case of Isotype control (antibody), the ECL signal [1] is reported as 1130 ECL, the ECL signal [2] is reported as 517 ECL and the ECL signal [3] is reported as 487 ECL.

Reference: patent publication US20180355043A1
